Molecular target: SERINC5-VN-HA (human) (UniProt Q86VE9)
Test: split reporter

Chain of UniProt Q86VE9 (Q86VE9 whole entry): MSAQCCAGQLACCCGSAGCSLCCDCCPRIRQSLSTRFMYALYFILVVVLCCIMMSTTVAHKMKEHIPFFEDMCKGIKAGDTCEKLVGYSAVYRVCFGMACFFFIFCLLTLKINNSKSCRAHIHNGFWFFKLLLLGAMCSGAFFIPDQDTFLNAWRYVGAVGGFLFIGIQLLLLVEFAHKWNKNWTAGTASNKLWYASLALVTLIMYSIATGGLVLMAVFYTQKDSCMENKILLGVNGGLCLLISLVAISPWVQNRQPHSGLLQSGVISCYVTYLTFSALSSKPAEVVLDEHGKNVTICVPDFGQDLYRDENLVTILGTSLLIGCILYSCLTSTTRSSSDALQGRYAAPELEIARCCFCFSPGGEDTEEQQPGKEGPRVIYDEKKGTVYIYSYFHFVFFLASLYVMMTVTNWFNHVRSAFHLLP

Nef_(NL43)-V5-VC (HIV-1 NL4-3 Nef fused to a Venus fragment) (natural protein)
fold increase in BiFC fluorescence over the singly expressed constructs: 4 fold

Reference: publication doi:10.1101/590646
